Source: PMC6395645, “Anopheline antiplatelet protein from mosquito saliva regulates blood feeding behavior” (Scientific Reports, 2019)

Target: T1, Anopheline antiplatelet protein (AAPP) (Anopheles stephensi (endogenous in …, UniProt Q7YT37))
T1 construct: Anopheline antiplatelet protein (AAPP), predominant saliva protein of Anopheles stephensi; acidic secretory protein, Mr = 37 kDa on immunoblots; Same endogenous protein in saliva and in salivary gland lysates; in TG mosquitoes it is present together with mDsRed-8H7scFv; source: endogenous, Anopheles stephensi saliva and salivary gland lysates/homogenates (WT and TG mosquitoes)
T1 sequence (Q7YT37 20-269): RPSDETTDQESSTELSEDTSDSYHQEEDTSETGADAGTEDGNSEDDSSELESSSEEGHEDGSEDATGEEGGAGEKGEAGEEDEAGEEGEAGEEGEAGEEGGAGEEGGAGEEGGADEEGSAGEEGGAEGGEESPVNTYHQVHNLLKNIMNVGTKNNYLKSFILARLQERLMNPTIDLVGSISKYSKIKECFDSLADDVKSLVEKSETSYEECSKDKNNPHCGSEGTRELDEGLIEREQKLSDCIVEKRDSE
Assay: pull-down; Ni-NTA beads added to lysates (Cellytic M) of dissected salivary glands of TG and WT mosquitoes, 1 h on ice, washed with PBS; His-tagged mDsRed-8H7scFv held on the resin; eluate blotted with anti-AAPP mAb 28B8 and anti-mDsRed polyclonal Ab
Conditions: partners not purified

B1: mDsRed-8H7scFv (scFv, V domains shown)
VH: QVQLQQPGAELVRPGASVKLSCKASGYTFTSYWMNWVKQRPGQGLEWIGLIDPSDSETHYNQMFKDKATLTVDKSSSTAYMQLSSLTSEDSAVYYCARGGTYWGQGTTLTVSS
VL: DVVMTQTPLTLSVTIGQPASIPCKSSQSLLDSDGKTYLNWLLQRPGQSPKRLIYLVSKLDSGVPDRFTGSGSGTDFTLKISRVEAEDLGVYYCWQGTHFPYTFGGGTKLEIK
notes: VH of the anti-AAPP mAb 8H7; hinge/linker, printed as (Gly4Ser)3; VL of the anti-AAPP mAb 8H7; 54.6 kDa on blots; 8H7scFv is fused to monomeric DsRed through Gly4Ser x 3 linkers; The secretion signal is not described; also called anti-AAPP scFv; anti-AAPP antibody single-chain fragment; source: transgenic Anopheles stephensi (TG-03, TG-30, TG-37), expressed in salivary glands under the aapp …
B1: binds.
